Source: US20150203575A1 (Genentech, published 2015)

What was measured:
[1] = molecular target: T1, human COLEC12 expressed on cells (human, UniProt Q5KU26 1-742); experiment: flow cytometry, transfected 293T cells, 50 µg/ml
T1 construct: also called hCOLEC12; C-terminal his tagged hCOLEC12

MAG expressed on cells = molecular target: T2, MAG expressed on cells (human, UniProt P20916 20-626); experiment: flow cytometry, transfected 293T cells, 2 µg/ml
T2 construct: Clone of the Origene human cDNA library; also called Myelin associated glycoprotein; SIGLEC4A
T2 sequence: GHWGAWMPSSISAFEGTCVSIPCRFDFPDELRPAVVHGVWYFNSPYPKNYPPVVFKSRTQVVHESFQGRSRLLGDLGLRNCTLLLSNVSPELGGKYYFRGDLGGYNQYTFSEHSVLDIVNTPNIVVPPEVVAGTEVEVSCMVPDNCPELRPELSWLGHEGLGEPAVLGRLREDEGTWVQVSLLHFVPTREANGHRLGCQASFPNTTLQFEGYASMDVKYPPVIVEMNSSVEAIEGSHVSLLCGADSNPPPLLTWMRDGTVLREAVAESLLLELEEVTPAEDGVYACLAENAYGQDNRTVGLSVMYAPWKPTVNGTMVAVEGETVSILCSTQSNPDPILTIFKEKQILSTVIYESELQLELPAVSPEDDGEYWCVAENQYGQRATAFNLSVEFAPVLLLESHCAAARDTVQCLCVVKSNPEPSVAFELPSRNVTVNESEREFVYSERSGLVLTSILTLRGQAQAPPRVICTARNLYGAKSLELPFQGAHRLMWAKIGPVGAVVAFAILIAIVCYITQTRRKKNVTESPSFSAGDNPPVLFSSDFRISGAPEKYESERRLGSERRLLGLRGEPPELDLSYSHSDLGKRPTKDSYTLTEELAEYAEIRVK

PSS8 expressed on cells [2] = molecular target: T3, PSS8 expressed on cells (human, UniProt Q16651 30-343); experiment: flow cytometry, transfected 293T cells, 2 µg/ml
T3 construct: Clone of the Origene human cDNA library; also called Protease serine 8; prostasin

BR3 expressed on cells [3] = molecular target: T4, BR3 expressed on cells (human, UniProt Q96RJ3 1-184); experiment: flow cytometry, transfected 293T cells, 2 µg/ml
T4 construct: Clone of the Origene human cDNA library
T4 sequence: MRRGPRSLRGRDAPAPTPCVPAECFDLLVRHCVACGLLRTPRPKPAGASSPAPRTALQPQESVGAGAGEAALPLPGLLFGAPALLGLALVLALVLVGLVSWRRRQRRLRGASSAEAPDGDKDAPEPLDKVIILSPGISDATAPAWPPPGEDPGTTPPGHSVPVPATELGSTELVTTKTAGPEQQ

PSS8 expressed on cells [4] = molecular target: T3, PSS8 expressed on cells; experiment: flow cytometry, transfected 293T cells, 2 µg/ml; remark: listed apart in the source
BR3 expressed on cells [5] = molecular target: T4, BR3 expressed on cells; experiment: flow cytometry, transfected 293T cells, 2 µg/ml; remark: listed apart in the source
[6] = molecular target: T5, IL-2Ra expressed on cells (human, UniProt P01589 22-272); experiment: flow cytometry, transfected 293T cells, 2 µg/ml
T5 construct: Clone of the Origene human cDNA library; also called Interleukin 2 receptor alpha
T5 sequence: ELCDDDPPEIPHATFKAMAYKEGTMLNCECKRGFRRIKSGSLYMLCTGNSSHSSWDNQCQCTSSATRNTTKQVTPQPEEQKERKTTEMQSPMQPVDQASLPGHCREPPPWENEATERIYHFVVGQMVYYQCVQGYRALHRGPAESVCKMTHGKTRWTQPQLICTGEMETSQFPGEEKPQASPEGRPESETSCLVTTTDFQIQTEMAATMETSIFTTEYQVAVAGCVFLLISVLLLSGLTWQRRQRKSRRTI

[7] = molecular target: T1, human COLEC12 expressed on cells; experiment: flow cytometry, transfected 293T cells, 50 µg/ml; 293T-Neo: 1.1
[8] = molecular target: T6, human NPDC1 expressed on cells (human, UniProt Q9NQX5 35-325); experiment: as above
T6 construct: also called hNPDC1; hNPCD1
T6 sequence: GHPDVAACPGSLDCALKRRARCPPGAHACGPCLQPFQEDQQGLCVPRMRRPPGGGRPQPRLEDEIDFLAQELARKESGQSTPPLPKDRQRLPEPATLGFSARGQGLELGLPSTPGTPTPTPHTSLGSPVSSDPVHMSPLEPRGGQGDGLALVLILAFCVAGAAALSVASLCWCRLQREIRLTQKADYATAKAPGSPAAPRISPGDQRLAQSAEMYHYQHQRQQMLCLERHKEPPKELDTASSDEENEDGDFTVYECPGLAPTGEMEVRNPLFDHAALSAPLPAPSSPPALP

PSS8 expressed on cells [9] = molecular target: T3, PSS8 expressed on cells; experiment: flow cytometry, transfected 293T cells, 50 µg/ml
BR3 expressed on cells [10] = molecular target: T4, BR3 expressed on cells; experiment: flow cytometry, transfected 293T cells, 50 µg/ml
[11] = molecular target: T5, IL-2Ra expressed on cells; experiment: flow cytometry, transfected 293T cells, 50 µg/ml
PSS8 expressed on cells [12] = molecular target: T3, PSS8 expressed on cells; experiment: flow cytometry, transfected 293T cells, 50 µg/ml; remark: listed apart in the source
BR3 expressed on cells [13] = molecular target: T4, BR3 expressed on cells; experiment: flow cytometry, transfected 293T cells, 50 µg/ml; remark: listed apart in the source
[14] = molecular target: T5, IL-2Ra expressed on cells; experiment: flow cytometry, transfected 293T cells, 50 µg/ml; remark: listed apart in the source

T3 sequence (Q16651 30-343 limits assumed): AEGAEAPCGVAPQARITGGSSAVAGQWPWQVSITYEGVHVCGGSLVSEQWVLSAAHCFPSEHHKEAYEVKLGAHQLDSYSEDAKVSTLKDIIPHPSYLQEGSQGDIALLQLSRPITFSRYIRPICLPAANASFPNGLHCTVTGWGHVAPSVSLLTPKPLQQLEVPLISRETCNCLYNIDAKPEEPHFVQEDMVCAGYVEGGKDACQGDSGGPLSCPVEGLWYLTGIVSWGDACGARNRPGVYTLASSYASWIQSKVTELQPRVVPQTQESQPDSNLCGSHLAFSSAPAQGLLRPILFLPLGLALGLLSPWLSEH
T1 sequence (Q5KU26 whole entry S522P/G606S): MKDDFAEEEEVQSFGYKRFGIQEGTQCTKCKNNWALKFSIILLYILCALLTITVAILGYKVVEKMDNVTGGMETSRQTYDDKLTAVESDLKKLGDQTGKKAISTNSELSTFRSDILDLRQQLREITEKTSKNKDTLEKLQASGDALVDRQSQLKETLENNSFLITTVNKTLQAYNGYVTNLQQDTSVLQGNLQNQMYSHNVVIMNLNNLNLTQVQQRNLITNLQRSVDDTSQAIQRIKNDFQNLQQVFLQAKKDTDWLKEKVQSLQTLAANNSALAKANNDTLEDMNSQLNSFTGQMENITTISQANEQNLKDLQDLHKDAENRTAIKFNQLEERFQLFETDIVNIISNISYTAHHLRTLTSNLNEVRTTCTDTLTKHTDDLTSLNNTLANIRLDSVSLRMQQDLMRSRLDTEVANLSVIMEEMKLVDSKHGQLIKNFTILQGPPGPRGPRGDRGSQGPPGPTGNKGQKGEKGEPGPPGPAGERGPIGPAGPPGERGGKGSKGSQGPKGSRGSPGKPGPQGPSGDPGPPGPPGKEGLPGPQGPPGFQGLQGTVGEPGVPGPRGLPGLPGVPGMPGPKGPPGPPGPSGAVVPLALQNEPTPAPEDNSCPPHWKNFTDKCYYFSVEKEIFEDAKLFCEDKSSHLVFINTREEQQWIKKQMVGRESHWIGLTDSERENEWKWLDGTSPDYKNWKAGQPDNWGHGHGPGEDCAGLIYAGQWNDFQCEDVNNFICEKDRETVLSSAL

B1: mPILRα-Fc (Fc fusion)
chain: not shown
notes: also called mouse PILRα-Fc; WT mPILRα-Fc; not shown: Fc of mouse IgG2a (PILRα-mIgG2a, called PILRα-Fc)
% cells in lower right quadrant [1]: 10.1%
% cells in lower right quadrant (MAG expressed on cells): 0.039%
% cells in lower right quadrant (PSS8 expressed on cells [2]): 0.024%
% cells in lower right quadrant (BR3 expressed on cells [3]): 34.1%
% cells in lower right quadrant (PSS8 expressed on cells [4]): 0.024%
% cells in lower right quadrant (BR3 expressed on cells [5]): 34.1%
% cells in lower right quadrant [6]: 14.1%
% cells in lower right quadrant [7]: 10.1%
% cells in lower right quadrant [8]: 40.9%
% cells in lower right quadrant (PSS8 expressed on cells [9]): 30.6%
% cells in lower right quadrant (BR3 expressed on cells [10]): 53.3%
% cells in lower right quadrant [11]: 55.7%
% cells in lower right quadrant (PSS8 expressed on cells [12]): 30.6%
% cells in lower right quadrant (BR3 expressed on cells [13]): 53.3%
% cells in lower right quadrant [14]: 55.7%
